For one assay, the target named is T1, peptide on HLA-A*02:01 (human).
T1 peptide: VYALPLKML
The experiment in a line: activation reporter or marker.

A further assay addresses T2, peptide on HLA-A*24:02 (human).
T2 peptide: VYALPLKML
The assay is described as follows: activation reporter or marker.

B1: JG9-TCR (TCR, V domains shown)
Valpha: GQQLNQSPQSMFIQEGEDVSMNCTSSSIFNTWLWYKQEPGEGPVLLIALYKAGELTSNGRLTAQFGITRKDSFLNISASIPSDVGIYFCAGPMKTSYDKVIFGPGTSLSVIP
Vbeta: DAGVIQSPRHEVTEMGQEVTLRCKPISGHDYLFWYRQTMMRGLELLIYFNNNVPIDDSGMPEDRFSAKMPNASFSTLKIQPSEPRDSAVYFCASSSANYGYTFGSGTRLTVV
As for B1, the binding result with peptide on HLA-A*02:01 and in the assay with peptide on HLA-A*24:02 was “no recognition” in each case.

The values above are taken from US20200115432A1 (published 2020).
